We go through one molecule from PMC8303780, “Mutational Analysis of Redβ Single Strand Annealing Protein: Roles of the 14 Lysine Residues in DNA Binding and Recombination In Vivo”.

Changes are numbered by the printed parent chain.

Assay in all cases: EMSA; strands added sequentially; Anisotropy: 50 mM Tris-HCl pH 7.5, 1 mM DTT, 0.1 mg/mL BSA, 10 nM FAM48, 23 °C (Kd per monomer); gel assay: 10 µM Redβ, 50 µM nt of each oligo, PBS, 37 °C, 1% agarose at 22 °C
Settings in all cases: protein: recombinant; tags: 6xHis removed by thrombin; residual N-terminal GSH; label: 5'-Cy3 and 5'-Cy5; complementary 50-mers; annealed by protein
Background: Mobility shift assays separate free from complexed probe on a gel.

Data set [1] deals with T1, Redβ K11A (bacteriophage λ, UniProt P03698 1-261, K11A).
T1 sequence: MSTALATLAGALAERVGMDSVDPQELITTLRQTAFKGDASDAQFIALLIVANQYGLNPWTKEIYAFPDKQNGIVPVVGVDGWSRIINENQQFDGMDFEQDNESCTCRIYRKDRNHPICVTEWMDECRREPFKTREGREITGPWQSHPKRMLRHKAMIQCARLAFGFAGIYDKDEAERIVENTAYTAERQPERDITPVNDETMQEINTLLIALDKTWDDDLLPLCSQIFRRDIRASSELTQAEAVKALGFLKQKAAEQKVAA

In data set [2] the target is T2, Redβ K253A (bacteriophage λ, UniProt P03698 1-261, K253A).
T2 sequence: T1 sequence with A11K, K253A

Data set [3] has as its target T3, Redβ K111A (bacteriophage λ, UniProt P03698 1-261, K111A).
T3 sequence: T1 sequence with A11K, K111A

Data set [4] concerns the target T4, Redβ K36A (bacteriophage λ, UniProt P03698 1-261, K36A).
T4 sequence: T1 sequence with A11K, K36A

For data set [5], the target named is T5, Redβ K61A (bacteriophage λ, UniProt P03698 1-261, K61A).
T5 sequence: T1 sequence with A11K, K61A

Data set [6] deals with T6, Redβ K172A (bacteriophage λ, UniProt P03698 1-261, K172A).
T6 sequence: T1 sequence with A11K, K172A

B1: annealed duplex of Cy3 and Cy5 50-mers, strands added sequentially (dsDNA)
DNA 1: GCGGATGGCTTAGAGCAGAATCGCCCTGCATAGCTCGATTTTTGCGGATG
DNA 2: CCATCCGCAAAAATCGAGCTATGCAGGGCGATTCTGCTCTAAGCCATCCG
Consider B1, for which the binding result in data set [1] is listed as “binds”; in data set [2], “binds”; in data set [3], “no binding”; in data set [4] it was “binds”; in data set [5], “no binding”; in data set [6], “no binding”.
